Measured values: patent US20240279350A1

Target: human CD40 on cells (human) (UniProt P25942)
Test: cell-based or functional assay

Sequence of human CD40 on cells (human) (P25942 21-277 limits assumed): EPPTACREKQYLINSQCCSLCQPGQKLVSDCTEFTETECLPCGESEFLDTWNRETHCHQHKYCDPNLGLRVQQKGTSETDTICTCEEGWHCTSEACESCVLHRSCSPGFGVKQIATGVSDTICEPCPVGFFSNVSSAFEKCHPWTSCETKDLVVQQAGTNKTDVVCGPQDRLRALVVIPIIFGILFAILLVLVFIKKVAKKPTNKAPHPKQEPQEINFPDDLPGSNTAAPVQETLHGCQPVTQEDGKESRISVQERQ

- EC50, CD83 expression, MoDC maturation assay: 240 pM
- EC50, IL-8 release, MoDC maturation assay: 330 pM
Substance: Hexameric CD40L (from UniProt P29965 116-261) (ligand)
